This is an account of results in article PMC12251660, “The Structural Deciphering of the α3 Helix Within ZmHsfA2’S DNA-Binding Domain for the Recognition of Heat Shock Elements in Maize”.

Changes are numbered by the printed parent chain.

To fix the notation:
B1: ZmPAH1-HSE1-HSE2L16 (dsDNA)
DNA 1: CAGCGTCACATGACGGGAATTTTCGTTCGAACGCATTCTG
DNA 2: CAGAATGCGTTCGAACGAAAATTCCCGTCATGTGACGCTG
B2: ZmPAH1-HSE2 (dsDNA)
DNA 1: CAGCGTCACATGACGGGAATTTTCACGTCTTTTCAGCCCT
DNA 2: AGGGCTGAAAAGACGTGAAAATTCCCGTCATGTGACGCTG
B3: ZmPAH1-HSE1-HSE2R16 (dsDNA)
DNA 1: TCTTCGAATTGCATAGGAAACTTCACGTCTTTTCAGCCCT
DNA 2: AGGGCTGAAAAGACGTGAAGTTTCCTATGCAATTCGAAGA
B4: ZmPAH1-HSE1-HSE2M2 (dsDNA)
DNA 1: TCTTCGAATTGCATAGGAATTTTCGTTCGAACGCATTCTG
DNA 2: CAGAATGCGTTCGAACGAAAATTCCTATGCAATTCGAAGA
B5: ZmPAH1-HSE1 (dsDNA)
DNA 1: B4 DNA 1 with T20A, T21C
DNA 2: B4 DNA 2 with A20G, A21T

ZmHsf17, sequence (A0A5J6CYG6 entry or part of it): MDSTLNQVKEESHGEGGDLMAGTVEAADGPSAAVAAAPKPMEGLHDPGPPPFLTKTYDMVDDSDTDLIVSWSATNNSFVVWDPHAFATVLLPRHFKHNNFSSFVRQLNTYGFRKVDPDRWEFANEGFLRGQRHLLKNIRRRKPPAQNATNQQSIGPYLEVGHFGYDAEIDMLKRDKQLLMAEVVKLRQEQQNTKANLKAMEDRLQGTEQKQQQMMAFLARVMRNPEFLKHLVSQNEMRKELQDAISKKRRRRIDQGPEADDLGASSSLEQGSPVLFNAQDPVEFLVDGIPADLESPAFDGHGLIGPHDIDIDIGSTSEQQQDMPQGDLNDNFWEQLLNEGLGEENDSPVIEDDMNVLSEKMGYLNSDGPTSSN

This data set addresses ZmHsf17 (Zea mays, UniProt A0A5J6CYG6 1-373). In words: EMSA; EMSA/Gel-Shift buffer (Beyotime GS009; composition, salt and pH not stated), 10 uL, 25 C 30 min; 6% native PAGE in 0.5x TBE at 4 C. Particulars: protein: recombinant; tags: 6xHis (stated C-terminal; pET-30a); chain copies: 3; label: biotin; blunt. On the technique in general: Mobility shift assays separate free from complexed probe on a gel.
On to B1, for which the binding result is reported as “binds”.

On to B2, for which the binding result is on record as “binds”.

For the molecule B3, the binding result was “binds”.

For the molecule B4, the binding result is “no binding”.

In the case of B5, the binding result is “no binding”.
